Measurements published in a protein production outcome set (Wang et al. 2014).

Assay: label from the status in PepcDB records
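Further: failed if final PepcDB status was selected cloned or expressed and not failed if soluble or beyond.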

Sequence: MEDKTLGLLLDVVGELFSDEISIAVSNTKEYIYYRPSKRIDLKISAGDPIKEGTIAHKAMVTNQKTSEFMNRDVFGIPYHGMAVPFSNNGKLEGCVTAIYPALTDGKSVVTLKTTDGWIPVPFSKVMYLEAKDKKTYVNAEELTGTHKYSLQEFEYLLPKDSFIRCHRSFIVNVNHIKAIYPDTHSTFLLSMDNGERVPVSQSYASYFRKLLGF
- protein production: not failed

Sequence: MAVDDSEEGKPAESEAPLDLLQDWEHARAHAVPFSDSLLTECILVDQECVTNTKIKQEVNASSGCNTTPDSNTQDSDKIDYIESMDVCSNVEIESTEDSIVTGLNSGNAEDVDMTPGWRRKRNQKSKKSYIGTKDVLDQTLDKDIPLNKQNRRFPITARPVKRECVKKYERETFENGNERVYSTSSPRGRVYLLNDAAKL
- protein production: failed

Sequence: MSPEAKEAQDSRRNEMPEKKRAVLRKAIKLEWATIAWVLFSIVLVGVVAGQSQAMRSAWIEDMLSLVPPIAFLLASRISKAVATRKHPYGKHRSIAIGHQAAALALLIMGSLLIYEAVSALIKGERPPIGLAILFGHDVWSGWLMIGVMISVSIPMVIVGRVKINLAKDLHDKLLYADADMAKADWGTAVASTVGVLGIGLGFWWADAVAALVISASILRDGVINMKAAISDLGDGRAMTYDNSAPHPLNDDVEKAALEMHWVKHARARIRDQGRCFHTELFVEPVEGYTPAPEEITSLVKRIQNLDWKLQDVVASVVEKIDRFQAPS
- protein production: failed

Sequence: MLRQIRRNALSNFLSLWNEAATTSLGFFWMALWAFILGYVISSLIQVLVTRRKMQQAMGEDGPRSIALGTFFGFISSSCSFSALATTRAIFNKGAGLAPSLAFMLASTNLVIELGIVIAVFLGWQFVVGEYVGGVLLILVTWLLIRLTRPRRLEAQARRKMDDGDGDGGNSDKSWKEKITSKEGWQAIAQTYVMEWQMVWKDVLIGFTVAGIISAMVPQSFFEALFIGAGGENAANPGFLAVLSQTLVGPIAAFFTFIGSMGNIPLAAVLFAQGVSFAGVMAFIFSDLVVLPVLRINASYYGWKMALYILALMLVGIVTVSLLMHYSLALLGMLPDFSGQTSMGEREFFKWNYQAVLNILFLTATAILLWFWRQGQKQHSHDHHHHDHDHGGSSLTDKVLSVLVVVALLWLAGGVVVPLF
- protein production: failed

Sequence: MDGLFEFCQLSTGGSVAGAVKLNRQQTDMAVNWAGGLHHAKKYEASGFCYVNDIVLAILELLKYHQRVLYIDIDIHHGDGVEEAFYTTDRVMTVSFHKYGEYFPGTGDLRDIGAGKGKYYAVNFPMCDGIDDESYGQIFKPIISKVMEMYQPSAVVLQCGADSLSGDRLGCFNLTVKGHAKCVEVVKTFNLPLLMLGGGGYTIRNVARCWTYETAVALDCEIPNELPYNDYFEYFGPDFKLHISPSNMTNQNTPEYMEKIKQRLFENLRMLPHAPGVQMQAIPEDAVHEDSGDEDGEDPDKRISIRASDKRIACDLEHHHHHH
- protein production: not failed

Sequence: MSQWITEWIPQVMNQLGYGGISLLMFLENLFPPIPSELIMPLAGFAVAQGKLELFPAIVAGIIGTILGAYPWYYIGKWVSEERLEQLADRYGKWIGLDAKDIHKSNVWFGRYGHQSVFFGRLVPGIRTIVSLPAGVNAMGLISFTLYSLGGISLWVTFLASAGYKLGDHYELVEQYLGPVSKIVLVSIVAILVLLIVRKQLRRRA
- protein production: failed

Sequence: MSLDQIKIAYIGGGSQGWARSLMSDLSIDERMSGTVALYDLDFEAAQKNEVIGNHSGNGRWRYEAVSTLKKALSAADIVIISILPGSLDDMEVDVHLPERCGIYQSVGDTVGPGGIIRGLRAVPIFAEIARAIRDYAPESWVINYTNPMSVCTRVLYKVFPGIKAIGCCHEVFGTQKLLAEMVTERLGIEVPRREDIRVNVLGINHFTWITKASYRHIDLLPIFREFSAHYGESGYELEGECWRDSVFCSAHRVAFDLFETYGAIPAAGDRHLAEFLPGPYLKQPEVWKFHLTPISFRKQDRAEKRQETERLIVQQRGVAEKASGEEGVNIIAALLGLGELVTNVNMPNQGQVLNLPIQAIVETNAFITRNRVQPILSGALPKGVEMLAARHISNQEAVADAGLTKDTGLAFQAFLNDPLVQIDRSDAEQLFNDMLQCIMQSEGHHHHHH
- protein production: not failed

Sequence: MASLSYPKTTMQIQLGANLKPYHTFGIEQLAAQLVVAESIDDLKALYCSAEWASLPKLIIGKGSNMLFTCHYTGMIVVNRLNGIEHQQDDDYHRLHVAGGEDWPSLVSWCVEQGIGGLENLALIPGCAGSAPIQNIGAYGVEFKDVCDYVEYLCLETGTVKRLTMEECQFGYRDSIFKHQLYQKAVVTAVGLKFAKAWQPIIQYGPLKDLSSDCAIHDVYQRVCATRMEKLPDPAVMGNAGSFFKNPVISQQAFARLQIEHPDVVAYPAEQGVKVAAGWLIDQAGLKGHQIGGAKVHPKQALVIVNTGDASAQDVLMLAADIQQRVFNCYGIELEHEVRFIGESEETNLKQWMSEQA
- protein production: not failed

Sequence: MPFEDALAIVNAAMQTLLGRQLSDIETLIFEGSWQSKTYPQIADGAGYSINYLTTDVGPKFWKVLSQALGEPVNKKNFKAAIRRYCVVQSGGEWESEGFQTQLPSYPSILSWGEAPDVSQFYGREEEQALLQRWIEAERCRLIAVLGMGGIDKSTLTTKVVQGFVQGDGVEEWEGDNINIKKIQNPLQEGQSPTKFKIQHLPSSPATPFTHIIWRSLRNAPPLEALLAELIDLLSEHQETVGDRARLLHWLRKTRCLIVLDNLETILQAGDHAGYYRDGYGDYGELIQLLGETPHQSCVLLTSREKPAEIAVLEGLDGNTRTLQLSGSVATAIAIIQQKGLQGTEEQQQVLCDRYSYNPLALKIVSTTIQDLFDGDISAFLTEDAVIFNSIRRLLDAQFQRLTELEQAIIIWLAINRDWTAIAELAADLVPPVPKVKLLEALESLRWRGLIETQDKRYTLQPVVMEYVTERFIEQINQELEMGQPQYWQQFALLKLTVRDHITETQRRLIVHSTAAQFGDCFPSPELQRQQLQTVLTAIRESVIAGYGVGNLINLSNALDLDLAGFDFSQLTIRQADLRHRLFQHLNFAQANFRDSAFKQTFGSIFSLSYSPAGDYLITGDDVGVVRLWKSAEMQPMQSYPLHRSYVWDLRPSADGRWLATCSEDQTVKITNLATGQLQATLVVAPTIARAIVWIGPDCLAIGGIDGHIRLWYPFTEQAPVLVTAHTDIVNSLSWDANSNLLASSSSDSTVKLWDVETGICHRIWREAVPVRWATWSPDGHTLAISREDGGIVLWNPHSDQAPRYLNGHPETVWSLDWNPDGAWLASSSHDATVRLWDVVTGRCRRILRSHQNWVWYARWHPHQPRIISGGHDGTLKLWDTGTGQCLKSLTGHMANIRAIAPAPDGQTLALGCDDTIVRLCGADSPPSFIHAFGHSHLISDLCWNPTGENLASASHDCNLRVWQRSPLRCTQVLKGHTNWVWSVDWHPTQDLLASGSVDSTIRLWYPTQSTPVKTLMAQTSWILSVRWHPTGRWLASAAGDFTIGLWNSKTWECTHLLTGHTHWIWCLAWSPNGQYLASGGYDNTVFIWKVEKEVTSLRTLEHPTILSAIAWHPDGELLATSCHDGNIRLWHWQTGQCVTRISGHQGEILTLKFSPDGKRLYSSSQDETWKTWDWQTGTCLASDRLDRPYEGMNISEVRGLTEVRKAALRALGATEGSQPPGDLVRWLRKTEQGRKL
- protein production: failed

Sequence: MSARMFVLCCIWFIVAFLWITITSALDKEWMIDGRGINNVCDVLMYLEEDDTRDVGVIMTLPLFFPFLWFALWRKKRGWFMYATALAIFGYWLWQFFLRYQFCL
- protein production: failed

Sequence: MPLVHRSALPALCLSLILPWTFSVQAADPAPETKTPEEQPAQRQPLPERSQKDAAALERQLPALEQQQLQAGGDTFLALWKPANTSDPKGVVIILPGAGETADWPQAIAPLRNKLPDTEWASLSLTLPDMLSEAAQPRVVEAAPVPTDKANTAKDASTEAKPIEQVAGGEADVADRVVAESTEEQIKADAERIFTRVDAALAFAEQQNARSIVLLGHGTGAYWAARYLSEKQPAQVQKLVMVAAQSPANGKPQLAEITPTLKLATADFFYVDKPLAQKAALERLQASKRLKHSNFSQIPLKALPGNNTAQQEQLFRRVRGWLNPQNTDS
- protein production: not failed

Sequence: RQLSRHTYAVRALTDIDDFNAQFNTDFDDEEVDTIGGLIMQTFGYLPKRGEEIILKNLQFKVTSADSRRLIQLRVTVPDEHLAEMNNVDEKSE
- protein production: failed

Sequence: MKIMKTFALSSIASAAMLFCSSALAADGTITVDGKVTDRTCTINGGTPNFSVTMPTVSFSSLNGEGKTSARTPFTIELTNCTAGSTVATYFEPGPAVDINTSRLINQAPTASAATNVQVQLLGSNGSVIPIKAVGTTGAQDNSQWVAVNASGAASMHYYTEYYATGVSTAGSVVTNIQYTIIYQ
- protein production: failed
